test: soluble on expression in E. coli; label from the status in PepcDB or PDB records

Sequence | soluble on expression in E. coli
MSLHPADFIEKPPRFPVVDGHVDLVYDLMRRHPGIPFEQVADGQVTAQSLKKGGVWVLVAALYCADSHNGPASAAREMRRLHDYACRYLEWFALLRSPGEMAAALGGSGPPGIVFLVENADALLELDLDEVRRWGVRAVGLTHAGRNRLADGNGVTDPKGLTAAGKSLVRSIAGAGLILDVAHLAEPGFREVASLVTGPLISSHTGLRSFCDRPRNLSDPQVAEIARRGGVVGISAAPEMLVPGGTATLDDLFRQVDHVVQRHGPEAVGIGSDFGGFDDTAKGAEDHGGLPLLAERLLGAGYPAGAVGLIMGGNWCRIYGGIEGHHHHHH | soluble
MYSNVQPFINSDLTNCFQSQYTEIESLLFNLLDSPVKYTKHIGGTHHFKYSTEPILDILVGVENLHDITSLDEKRLNYVGFYRLHHKYTKKVMMAKFNNFHELKQQVRLHIIQMNTQTFESYLALDYLLSTNDDIALQFNTKKHQILQHSLTIRQYEMQKQQYFEKLCKKY | not soluble
MIVIKPFILACLIVKKRKDILGKCLYSLESIGGEIIIVDNGSTDKKKEIAQKLTDKVYDFKWMNNFVEARNFAASKVSGTWIIAVDADECIDINNFVAAMEEIKSYKDKISIFLVEIMSFVGDNGEEITVNTMARLYKNDGSVYFLWWNV | not soluble
MFRLLVPTYYSYSVPLRFPFCKIYRYSTSNKMVAIKDITARQILDSRGNPTVEVDLLTDGGCFRAAVPSGASTGIYEALELRDKDQTKFMGKGVMKAVENIHKIIKPALIGKDPCDQKGIDKLMVEELDGTKNEWGWCKSKLGANAILAVSMACCRAGAAAKGMPLYKYIATLAGNPTDKMVMPVPFFNVINGGSHAGNKVAMQEFMIAPVGASTIQEAIQIGAEVYQHLKVVIKKKYGLDATNVGDEGGFAPNISGATEALDLLMEAIKVSGHEGKVKIAADVAASEFFLQDDKVYDLDFKTPNNDKSQRKTGEELRNLYKDLCQKYPFVSIEDPFDQDDFHSYAQLTNEVGEKVQIVGDDLLVTNPTRIEKAVQEKACNGLLLKVNQIGTVSESIEACQLAQKNKWGVMVSHRSGETEDSFIADLVVGLRTGQIKTGAPCRSERLCKYNQLMRIEESLGSDCQYAGAGFRHPN | soluble
MSSSNKESASDLIRAKDAGLLDIWALPSFDPHVEPEPEPEPEPVDEPAEMEEVPLDEVQPLTLEELESIRQEAWNEGFATGEKEGFHSTQLKVRQEAEVVLAAKVASLEQLMGHLLAPIAEQDTQIEKAVIHLVEHIARQVIQRELVTDSGQIASVLRDALKLLPMGAQNLRIFINPQDFLLVKAMRERHEEAWKIVEDEDLLPGGCRIETEHSRIDASVETRIALAISKMHDQLHEQVTHPAAADLSVDLDASPVSTAKTEDSDVDALDAP | not soluble
MPEEYIMSSKACIYVLGGAANTAALFDFDGVYILDGGFAEKNPGFVAHVRDVSAVLLAAPTLGNLGTTSALLEQGKPLPVFTNTKPFKTAKPGSSGEIAKAIQEANSKILSVAPPLFNPKYPANIIYQSAAKGVLSLYILAGDVKDAEVITKALAGGNEAEVEKAAAEHGTIGVLLWRPAMTDQSVVRVLISGTSSLSRIQQSLDKAAKSLPFLNVPTVKSKDALSDIPAPAVPRPVAGKPSARPATTTGTATRPTRPAVPAASAPRALTSRAPAGPSRPTTTRNAAPAPRTAVPSRATVLTKTAPASKAPTRAPVPARSAPAPPRGAPAKPAANTAKAEPIAQKKTVGKVQGTAPSKPAPAAPASAATSPAPAPEAPRRDPNNVTIVLDDSLSPEDFNQGSAPMDIVVIPPTPEPPRHEVAQATHPEESIIDAEDLAKAPLEVDDVANLADVEDEIPPPVDAFKKPEPHPEPNVSGGSEEDKIPEPVDAFKKPDPVELDDFDPLKPSHPEPSAPVVPSDHIIIATPDPELPDIVAAVPFVSPSPKGPNDGLVKLDDELEKIAPGFEEPLIPQAPRDDGTLAECSEEVSKLVEISMDTDNSAEVAADLAKAVGEVTQLSADLQNLGLDEKTDEYVRKLSNQMIEDATLPFTSALASSIVTSNGSETNGHGEQAHAAQNGGIDHQKEIPKHDLMQSRSSVIENGAAVQYEKTDPALDDVLNACAQESEKIDASHPDNLHMPAAPGSAAPAKPVKFARPYYFDVVTVPRNEKLETSVAADGLQEFISKVRSRNVILASKDISGEQLQAILCGKQTWCDSAHPCNVIPTHSSPMLLDFRQKNEEQFAANNLQFSIPVEKQRTTVSSDAGAIEYELARVDLL | soluble
MPPQKYHCNVCAQDITRSIHIRCVECVDFDLCIPCFTSGASLGTHHPSHPYRIIETNSYPIFDENWGADEELLLIDACETLGLGNWADIADYVGNARTKEECRDHYLKTYIESDCYPLASVELPGPVDRIAFAARKRARIEAFQPPPIIPQKPLASTPQCHEIQGYMPGRLEFDQEYMNEAELPIKDMNFDDDLHESAKHEMQLKLTMLNIYNSRLTRRAVRKQTIFNHNLLDYRRLQANEKRMSKEERNLLNKTKAFARLLTGPDYQKFVNSYHEQITLKKQISDLQEWRQMGLTTLEQGHKYERDKTQKFLLSKASASYDKQLRHVKSFNQTTSAPFQVRDIQKIVPRKPATPTMFSASADRQLLSEDEQALCSKLQIFPKPFLALKFALISASLTSKKPFQKTDAVNLFKHLDANKVEQVYDFFHNARWIGAPT | soluble
MSLSAPRITRVETAAIRAVGPSVLVRVWAGDEHGLGECYPSAPAAGIHHIVMNMEEQLLGEDPRDVERLYEKMRRWNIFTGGQAGAVITALSGIETALWDLAGKLQGVPVYRLLGGAFRRRVRLYADCNAGTVDAAAHHIEGGLFEEGSNEEYIAVAREAVERGFDAIKLDVDDITGPLHRDFWNGAISPREHEAMVARVAAVREAVGPEVEVAIDMHGRFDIPSSIRFARAMEPFGLLWLEEPTPPENLDALAEVRRSTSTPICAGENVYTRFDFRELFAKRAVDYVMPDVAKCGGLAEAKRIANLAELDYIPFAPHNVSSPVGTVAAAHVCAAVSNFAVLEWHAIDMPHWEDFVRYPGGPVIREGHIELTEEPGLGLELDEEAAFEHRHEKGGVPFFGRTEGHHHHHH | soluble
MERLKIQVLVDNNTYIDRYFVGEPAVSYYIEIDGNRILFDSGYSDVFISNAEKLNIDLGNLTHVVFSHGHNDHTRGIQFLENRYDLSTVELVSHPNCFIPRKHGEKSIGAPFSAEEIKNIFMYNPKDKPFNLSKNCVFLGEIPSINDFEKRAKIGKCKIGDLWEDDYVLDDSAIVCKTDKGIFIVTGCSHSGICNIVEYAKKVCGDDRVIGILGGFHLFELNNRLDSTIQYLDKEEIRMLYPCHCVSFKVKAKMNEILNINEVGVGLTISILEHHHHHH | soluble
MGSDKIHHHHHHMNALQFQKKLLSMQENMMNFALMLTANRDDAQDLMQDTTLKVLDNQEKFVDNINFKGWVLTVMRNIFINNYHKIVRTQTVVDQGVDLYNLDVVNDSGFDSPDGAYQIQEITKAINGLNNELKVPFSMFLSGYKYNEIADKLDVPLGTVKSRIFFARQELQKVLKDFRQG | not soluble
MLKRLISIPTVAPQGDHYGEAAELLARELESLGFETVVERVPSEYQREKCRHASDNPRFIVYGRRGEGPALHFNGHYDVVPGGPGWSVTEPFKPVVKDGKLYGRGAIDMKGGIAAALGAFKALHLSGAWPQGLRVEAAFVPDEEIGGECGTGYLVNGMGVTPEYVVLPEPSGLEKPWHGHRGILWMKVRVKGRTAHASTPWHGRNAFLLASAIALDLQQALASMYAGRRSRHRIEPEESAKPTVSLGGEAGVTGGGKTNQVPGEFYFTVDRRLIPEETVSQARDELLGVLTWLSVKHGAEVEAEEVISAEPAINEPGELYEALREAASQSGRSIGEPVVCPGGLDMWYYTVKGSKALAYGPRGELAHAPDEHIDLGELRFLVETFARLPITLAVALQRRT | soluble
MVELTPAAIQELERLQTHGVRRGQAAILRIQVQPSECGDWRYDLALVAEPKPTDLLTQSQGWTIAIAAEAAELLRGLRVDYIEDLMGGAFRFHNPNASQTCGCGMAFRVSRS | soluble
REEVRVVVGAERTELLLPLLRDKRVALVANATSVVGTEREHLLDNLLRQGVNVVKILGPEHGFRGDADAGATVKDERDVRTGIPIVSLYGKNKKPTPRMLADVDVLLFDMQDVGTRFFTYISTLHYVMEACAEEQKKLIVTDRPNPNDYVDGPILQDDCRSFVGVDPLPILHGLTIGELANMINGEGWLGKKEMKCDLTVVPMSGWKHGQEYALPVKPSPNLPTANAIAWYPSLCLFEATIMSVGRGTDFPFEVLGYPKKVFGSFVFVPRPIRGMDSNPLYKGRHCYGVDLRGEKAPRGLSLQLLIRYYQTARREGIKFVNRKQMFNLLAGTKELAQQIEKGRTEEQIRASWQSDLDKYHKLRKKYLLY | not soluble
MTKAFDAFERAIRDAEDLLARHDAEKTVPNGHNGEVLKRAGLVMALAAWETYVKDRLQSEIDTWLQAVEGSPLGKFVRRRLEEDLKRFFNPNDERTRRIFIDYFDVDITKDWVWENYDSSTSKKVLDSLVAKRGDAAHKANTALHASAEPHKVKRDELEKGIRFLKGLVAATEKAKITK | not soluble
MLEVKELVKTFGDFKAVDHVSFTIPDGKILGLIGQNGAGKTTTFRLILNFLTQDSGSVLWNGQPLNEKEYNIIGYLPEERGLYPKITIEDQLIYFASLRGKTKKEIEPKIDFWMEKFQVKGKKTDKVKSLSKGNQQKVQLIATLIHEPKLIILDEPFSGLDPVNAELLKDGIIELKNQGSCVIFSSHNMDNVEKICDHLVMLKNGRMVLDGQVHEIRQQFGRTKLFLESPLSVEEVAATAGVKEAHLRQDGVLEATLENAEVGKVLFDKATANGYIPMFNQQPPTLEEIFKMKVGGQDE | not soluble
MLEACTKCGTCAEACTMYLGSGRKKIYSPVYRSDMLRKIYKKHFTLTGKLFGPLIGAKDPTEDDINALAESAYRCTVCRRCALACPFGLDNGLITRETRKIFADLGILEHHHHHH | not soluble
AVVNTDDYVTRTSIFYHAGSSRLLTVGDPYFRVPAGGGNKQDIPKVSAYQYRVFRVQLPDPNKFGLPDTSIYNPETQRLVWACAGVEIGRGQPLGVGLSGHPFYNKLDDTESSHAATSNVSEDVRDNVSVDYKQTQLCILGCAPAIGEHWAKGTASKSRPLSQGDCPPLELKNTVLEDGDMVDTGYGAMDFSTLQDTKCEVPLDICQSICKYPDYLQMSADPYGDSMFFCLRREQLFARHFWNRAGTMGDTVPQSLYIKGTGMRASPGSCVYSPSPSGSIVTSDSQLFNKPYWLHKAQGHNNGVCWHNQLFVTVVDTTRSTNLTICASTQSPVPGQYDATKFKQYSRHVEEYDLQFIFQLCTITLTADVMSYIQSMNSSILEDWNGGSGGNKDPYDKLKFWNVDLKEKFSLDLDQYPLGRKFLVQAGL | soluble
MKIMIIGATGMAGQALVTTALNRGHQVVAVARSAEKLATLPSNPNLTSIVRDAFNLTTTDLSAVDAVVDAFATAPDHAYLHVDLATHLISQLRETTTPRVAFILGAGSLTTGDDAHLFVHDLEQDPHAASFISVPQNQLKELTFLRDVDNVNWFGVSPAADFHPGEAQPALLGTDTLLFNDQQQSGTSAGTMAVAILDELENPKHHQTRFTVADKLEHHHHHH | soluble
MAHHHHHHMRHSTYVEVCLRNIAYNVECIRRIAGKAELIPMVKGNAYGHGMGKVSEYLHNVCGVHTFGVASLGEALELIESQPSIAEKAQNEIFVFSDTEVLNEGCQSYYQPCGRWAVRLTPILGTLPQLKAFCASNAFNNTKLCLKLETGMNRLGLRFDELEEAVPILKQRGGVDLLLQHFGIAGSVERLAETLNHYEAFKNAKKFLHDSGVEVRATSVSNSGAVEQRIGLEETYIRPGIMLYGPRSVTSKNLWNGKFASCFYTKVLHHFPLRKGEGVGYDLTPVKADSVIVMLPIGYADGFLCTYKGMPIKVTPEDAAEPIIGTVHGRINMDMAAVVVYPEEVGKNIGNIMAAVKKESRIHVWGDDIEEKAVSVGAIPHQLTCGLSIRVPRIYM | not soluble
MSAPFEERSGVVPCGTPWGQWYQTLEEVFIEVQVPPGTRAQDIQCGLQSRHVALAVGGREILKGKLFDSTIADEGTWTLEDRKMVRIVLTKTKRDAANCWTSLLESEYAADPWVQDQMQRKLTLERFQKENPGFDFSGAEISGNYTKGGPDFSNLEK | soluble

Source: the DeepSol protein solubility set
